The target in experiment [1] is seleno-methionine (SeMet) labeled XptA2 (Xenorhabdus nematophilus). The experiment can be described thus: crystal structure; SeMet XptA2 crystals grown in 0.1 M HEPES pH 7.5, 0.2 M NaCl, 16-20% PEG-3000; MR-SAD phasing with the 7 Å cryo-EM map; 3.1 Å; pre-pore state.
Experiment [2] concerns the target recombinant wild type (wt) XptA2 (Xenorhabdus nematophilus). In words: cryo-EM structure; single-particle cryo-EM of wt XptA2, pre-pore state; first map 7.2 Å, final map 3.1 Å (3.02 Å in the methods); 10 mM Tris, 100 mM NaCl, pH 7.5; C5 symmetry.

One may read the stoichiometry N as a count of units in the complex or per binding partner. For seleno-methionine (SeMet) labeled XptA2, the stoichiometry N in experiment [1] is 5.
As for recombinant wild type (wt) XptA2, the stoichiometry N in experiment [2] was 5.

Values taken from publication PMC10487846.
